The chains are these.
B1: TPR 5TU (parent)
chain: GGAUCUUCUCGAUCUAACAAAAAAGACAAAUCUGCCACAAAGCUUGAGAGCAUCUUCGGAUGCAGAGGCGGCAGCCUUCGGUGGCGCGAUAGCGCCAACGUUCUCAACUAUGACACGCAAAACGCGUGCUCCGUUGAAUGGAGUUUAUCAUG

The source of these data is the RNAGym collection of RNA variant scans (doi:10.1073/pnas.2313332121).

Variants at the floor of the assay were thinned out.

The data set covers variants of B1. The data set can be described thus: polymerase ribozyme fitness, log enrichment relative to wild type (log ratio); higher = more active; in vitro selection for triplet polymerase activity. Put shortly:
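Each subunit of a heterodimeric triplet polymerase ribozyme was mutagenized into a library by PCR, transcribed, and subjected to one round of in vitro selection, run in triplicate. Libraries were annealed with a biotinylated primer, the partner subunit and triplets, incubated frozen at −7 °C, and extended constructs were gel-excised, captured on streptavidin beads and recovered by RT-PCR. Input and output libraries were sequenced on Illumina, keeping genotypes with ≥10 input reads and ≥1 read per output. Fitness is log base 2 of genotype enrichment divided by wild-type enrichment, from inverse-variance-weighted replicate averages.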
Regarding C27G A29G C95U, the “polymerase ribozyme fitness (log ratio)” value is at most -4.2. Take A26U G81A: the “polymerase ribozyme fitness (log ratio)” value was -1.66.

In the case of A26U A40U A91U A121U, the “polymerase ribozyme fitness (log ratio)” value is at most -4.2. In the case of A26C A41G C54U C75G G88A A107G it was at most -4.2; in that of A26G G92U, -3.31. Then A26U C35G C69A G92A C96A A97G A120C, with at most -4.2. Then C27G A37G C72A C105A, with -4.13; and A26C U144C, with -2.23; and A26C U144G, with -0.859. For A26U C118U, the “polymerase ribozyme fitness (log ratio)” value was -0.616. In the case of A26U C118A it was -2.33; in that of A26C C57G G80A, -4.09; in that of A26U U104C G124C, -3.3. Then G25U G50C U77A C87U A107G, with at most -4.2; and A26U C93U A122U, with -2.76; and A26C C27G C51G G83C A89C A138G A142U, with at most -4.2. A26U C93U: the “polymerase ribozyme fitness (log ratio)” value was -2.67.

Take A26G U145A: the “polymerase ribozyme fitness (log ratio)” value was -3.59.

For A26U G46U G58A A73U C85G U111G A150U, the “polymerase ribozyme fitness (log ratio)” value is at most -4.2. Then A26G C69U C79U C87U A91U, with at most -4.2; and A26G C32A A39C C54A A150G, with at most -4.2; and A26U C35U C87A G124C, with at most -4.2. Turning to A26G G81A C95U, the “polymerase ribozyme fitness (log ratio)” value is at most -4.2.

For the variant A26C G81A C87U G88C G124C G136U G140C, the “polymerase ribozyme fitness (log ratio)” value is at most -4.2. Take G25U C69G U146A: the “polymerase ribozyme fitness (log ratio)” value was -4.05.

On to A26G A28G C87A C105G C108U C125A, for which the “polymerase ribozyme fitness (log ratio)” value is at most -4.2. For A26U C75A U82G G92U G100A A107U U144A, the “polymerase ribozyme fitness (log ratio)” value is at most -4.2. In the case of A26U U31A U44G C75G U102G A120C it was at most -4.2; in that of A26U C85U, -1.63; in that of C27A U56A A60U A122C U144A, at most -4.2. Regarding A26C C51G G65A G74C G81U C93G A119U C132U G141C, the “polymerase ribozyme fitness (log ratio)” value is at most -4.2. In the case of A26U C54A C93A A138C G141C it was at most -4.2; in that of C27A A47U A106U U145A, at most -4.2.

For the variant A26G A52G U90G U135A G136C, the “polymerase ribozyme fitness (log ratio)” value was at most -4.2.

As for A26U C51A C54A C57U U90C C93G, the “polymerase ribozyme fitness (log ratio)” value is at most -4.2. In the case of G25U U45A, the “polymerase ribozyme fitness (log ratio)” value is at most -4.2. Take A26C C93A: the “polymerase ribozyme fitness (log ratio)” value was -3.21. In the case of A26U A41G G62U it was -1.6; in that of G25U C87U C93G A138U, at most -4.2; in that of A26U A49C U111G, at most -4.2. In the case of A26G U33C C85U it was at most -4.2; in that of A26U U45A G83U G92C A122U, at most -4.2. On to G25U C76U G94C A120G, for which the “polymerase ribozyme fitness (log ratio)” value was -2.88.

As to A26U C36U U44A C57A G68C C118A U135G, the “polymerase ribozyme fitness (log ratio)” value is at most -4.2.

For A26C G83A G126A A137G, the “polymerase ribozyme fitness (log ratio)” value is at most -4.2.

Consider G25U C35U A49U G68A G81A U109G C118U G126C, for which the “polymerase ribozyme fitness (log ratio)” value was at most -4.2.

In the case of G25U G71C U145G, the “polymerase ribozyme fitness (log ratio)” value is at most -4.2. In the case of G25U A39U U55A U102C U109G C114U A120U A122G U144G it was at most -4.2; in that of A26U A47C A49C G80C C85A A113G A150U, at most -4.2.

In the case of G25U G46C G50A G62A C96U, the “polymerase ribozyme fitness (log ratio)” value was at most -4.2. Turning to A26U A49G C57A G88U G92A G100A A106U C125U, the “polymerase ribozyme fitness (log ratio)” value was at most -4.2.

A26C C38U G86U U144G: the “polymerase ribozyme fitness (log ratio)” value is -3.75. G25U G46C G50C A66G U90C G100C U104A U146C G152A: the “polymerase ribozyme fitness (log ratio)” value was at most -4.2. A26U G94C: the “polymerase ribozyme fitness (log ratio)” value was -2.1. For A26U G68C G86U C103G A115C, the “polymerase ribozyme fitness (log ratio)” value was at most -4.2. In the case of A26G A89U it was -4.16. In the case of C27A A30U U44A C57A A97G A98U A119C A120G G128A it was at most -4.2; in that of C27G A29C C51A A73U G83A A97U U151A, at most -4.2. Then C27A U33C C85A A106G U144A U151C, with at most -4.2. Turning to G25U C54A G80A, the “polymerase ribozyme fitness (log ratio)” value is -4.05. Then A26U G65A A66U U77C C96U A106U A107U C132U U139A G143C U148A, with at most -4.2.

On to A26U C51U G58C, for which the “polymerase ribozyme fitness (log ratio)” value is -2.08. Consider A26U U55A G74A G92A A110U G136A, for which the “polymerase ribozyme fitness (log ratio)” value was at most -4.2. In the case of A26C G84C C108G G133U it was at most -4.2; in that of A26C G84C C108G G133A, at most -4.2; in that of C27A U55G A66U C72U U78G C79U A91C C105U, at most -4.2. Then A26U A41C G71U C95A, with at most -4.2; and A26C C76U G81U G86A U144C, with -3.81; and A26C G92C, with -2.71. In the case of A26C U134G, the “polymerase ribozyme fitness (log ratio)” value is -4.1. In the case of A26C A41C C57G it was -3.4. Then A26U A29C A47G A49U G59C G65A G117C U139G, with at most -4.2; and A26C C93G U139G G140U, with -4.11; and A26U G46C U55A C93U C103A A106G C114A, with at most -4.2.

As to A26U U33A A47G G62A G94U C105U A110U, the “polymerase ribozyme fitness (log ratio)” value is at most -4.2. As for A26G C43U U45A G59C G88A, the “polymerase ribozyme fitness (log ratio)” value is at most -4.2.

Take A26C A52C C69U G100A C125A: the “polymerase ribozyme fitness (log ratio)” value was at most -4.2.

On to C27A C43A A52U U55A U56A G92U, for which the “polymerase ribozyme fitness (log ratio)” value was at most -4.2. For the variant G25U C85G C132G, the “polymerase ribozyme fitness (log ratio)” value was at most -4.2. Consider A26U A91G G140C C149A, for which the “polymerase ribozyme fitness (log ratio)” value is at most -4.2.

Consider C27G A37C U44A U45A C57U G68A G83A A119U A120U A147G, for which the “polymerase ribozyme fitness (log ratio)” value is at most -4.2. On to A26U A49G C95U, for which the “polymerase ribozyme fitness (log ratio)” value is -3.28.

Consider G25U G48A G84A C96G, for which the “polymerase ribozyme fitness (log ratio)” value was -4.04.
